Experimental findings from patent publication US20080008712 are described below.

Data set [1] addresses T1, CDC25B2.
T1 chain: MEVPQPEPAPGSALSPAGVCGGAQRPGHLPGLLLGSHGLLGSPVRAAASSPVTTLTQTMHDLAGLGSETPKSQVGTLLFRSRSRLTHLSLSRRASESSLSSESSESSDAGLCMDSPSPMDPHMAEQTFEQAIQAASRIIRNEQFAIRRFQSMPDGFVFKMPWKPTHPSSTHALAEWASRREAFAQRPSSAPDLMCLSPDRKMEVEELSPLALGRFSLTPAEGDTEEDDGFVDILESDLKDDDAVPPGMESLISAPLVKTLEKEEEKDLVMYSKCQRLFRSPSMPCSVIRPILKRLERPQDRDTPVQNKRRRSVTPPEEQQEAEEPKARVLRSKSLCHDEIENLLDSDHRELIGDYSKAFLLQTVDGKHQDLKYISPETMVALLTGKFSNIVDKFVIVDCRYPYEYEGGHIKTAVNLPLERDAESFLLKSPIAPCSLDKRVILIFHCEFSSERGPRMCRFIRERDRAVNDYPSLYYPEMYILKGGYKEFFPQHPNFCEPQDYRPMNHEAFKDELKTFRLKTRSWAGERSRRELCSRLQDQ

Data set [2] deals with T2, CDC25B5.
T2 chain: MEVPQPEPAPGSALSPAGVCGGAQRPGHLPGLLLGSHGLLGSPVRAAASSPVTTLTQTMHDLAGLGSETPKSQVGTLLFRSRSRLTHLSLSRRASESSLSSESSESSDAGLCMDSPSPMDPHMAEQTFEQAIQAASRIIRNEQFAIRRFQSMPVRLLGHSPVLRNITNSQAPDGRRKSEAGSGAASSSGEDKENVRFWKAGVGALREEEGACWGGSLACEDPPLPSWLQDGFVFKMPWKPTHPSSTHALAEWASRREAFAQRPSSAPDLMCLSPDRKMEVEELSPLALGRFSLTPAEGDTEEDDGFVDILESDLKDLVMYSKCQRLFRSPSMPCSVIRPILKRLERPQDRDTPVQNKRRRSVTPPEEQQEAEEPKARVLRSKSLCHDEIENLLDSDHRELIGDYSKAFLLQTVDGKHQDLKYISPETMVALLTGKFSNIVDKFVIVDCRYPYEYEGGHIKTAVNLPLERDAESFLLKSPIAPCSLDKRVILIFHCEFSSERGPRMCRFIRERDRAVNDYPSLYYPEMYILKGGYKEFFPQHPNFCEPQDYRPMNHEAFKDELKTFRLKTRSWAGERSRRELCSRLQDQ

Data set [3] addresses T3, CDC25B3 recombinant protein.
T3 chain: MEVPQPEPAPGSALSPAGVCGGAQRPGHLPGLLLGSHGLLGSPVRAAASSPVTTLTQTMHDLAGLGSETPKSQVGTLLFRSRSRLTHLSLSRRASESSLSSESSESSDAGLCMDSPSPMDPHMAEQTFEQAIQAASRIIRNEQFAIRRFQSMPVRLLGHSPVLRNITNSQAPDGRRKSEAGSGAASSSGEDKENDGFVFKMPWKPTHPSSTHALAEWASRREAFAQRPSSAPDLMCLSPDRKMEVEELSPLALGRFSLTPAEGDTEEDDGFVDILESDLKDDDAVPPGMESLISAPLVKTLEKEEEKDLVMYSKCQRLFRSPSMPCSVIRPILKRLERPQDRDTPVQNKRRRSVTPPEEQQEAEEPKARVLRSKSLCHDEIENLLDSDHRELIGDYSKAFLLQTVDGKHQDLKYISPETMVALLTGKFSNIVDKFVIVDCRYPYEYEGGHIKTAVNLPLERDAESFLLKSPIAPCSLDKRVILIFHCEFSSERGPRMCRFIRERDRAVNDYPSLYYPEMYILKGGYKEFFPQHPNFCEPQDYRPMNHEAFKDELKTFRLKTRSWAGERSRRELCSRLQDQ

In data set [4] the target is T4, CDC25B4.
T4 chain: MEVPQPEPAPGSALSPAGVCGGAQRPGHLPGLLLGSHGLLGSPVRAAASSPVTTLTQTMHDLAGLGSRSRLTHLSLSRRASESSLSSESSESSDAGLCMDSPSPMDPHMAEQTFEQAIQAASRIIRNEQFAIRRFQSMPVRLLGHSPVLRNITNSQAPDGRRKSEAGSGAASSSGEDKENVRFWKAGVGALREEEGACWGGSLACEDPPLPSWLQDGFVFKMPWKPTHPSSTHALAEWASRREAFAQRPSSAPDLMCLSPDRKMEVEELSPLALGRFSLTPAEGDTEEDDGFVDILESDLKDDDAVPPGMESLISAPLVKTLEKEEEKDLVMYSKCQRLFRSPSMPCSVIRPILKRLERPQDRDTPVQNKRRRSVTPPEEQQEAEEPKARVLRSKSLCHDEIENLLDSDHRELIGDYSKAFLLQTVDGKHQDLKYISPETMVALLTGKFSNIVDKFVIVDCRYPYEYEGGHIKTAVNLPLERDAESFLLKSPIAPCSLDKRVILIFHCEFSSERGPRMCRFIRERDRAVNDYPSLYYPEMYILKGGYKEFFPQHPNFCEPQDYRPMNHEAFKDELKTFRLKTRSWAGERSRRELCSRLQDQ

In data set [5] the target is T5, CDC25B1.
T5 chain: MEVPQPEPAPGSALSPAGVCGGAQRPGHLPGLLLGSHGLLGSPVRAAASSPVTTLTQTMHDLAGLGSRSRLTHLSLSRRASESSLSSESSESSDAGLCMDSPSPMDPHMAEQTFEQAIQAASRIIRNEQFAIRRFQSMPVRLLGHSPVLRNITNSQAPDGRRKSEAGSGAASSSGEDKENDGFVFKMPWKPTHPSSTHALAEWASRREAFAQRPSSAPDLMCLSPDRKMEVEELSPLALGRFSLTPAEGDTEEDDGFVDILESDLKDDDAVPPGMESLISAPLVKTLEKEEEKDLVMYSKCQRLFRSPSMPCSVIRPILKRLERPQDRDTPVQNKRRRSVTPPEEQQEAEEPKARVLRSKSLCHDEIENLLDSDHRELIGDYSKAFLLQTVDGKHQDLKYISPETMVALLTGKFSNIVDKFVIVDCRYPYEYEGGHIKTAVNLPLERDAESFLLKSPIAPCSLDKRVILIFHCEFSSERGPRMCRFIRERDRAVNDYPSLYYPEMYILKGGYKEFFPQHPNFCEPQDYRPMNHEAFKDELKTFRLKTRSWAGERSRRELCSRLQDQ

B1: recombinant Aurora A kinase (protein)
chain: MDRSKENCISGPVKATAPVGGPKRVLVTQQFPCQNPLPVNSGQAQRVLCPSNSSQRIPLQAQKLVSSHKPVQNQKQKQLQATSVPHPVSRPLNNTQKSKQPLPSAPENNPEEELASKQKNEESKKRQWALEDFEIGRPLGKGKFGNVYLAREKQSKFILALKVLFKAQLEKAGVEHQLRREVEIQSHLRHPNILRLYGYFHDATRVYLILEYAPLGTVYRELQKLSKFDEQRTATYITELANALSYCHSKRVIHRDIKPENLLLGSAGELKIADFGWSVHAPSSRRTTLCGTLDYLPPEMIEGRMHDEKVDLWSLGVLCYEFLVGKPPFEANTYQETYKRISRVEFTFPDFVTEGARDLISRLLKHNPSQRPMLREVLEHPWITANSSKPSNCQNKESASKQS
For B1, the in vitro phosphorylation result in data set [1] is on record as “CDC25B2 on the serine 312”; in data set [2], “CDC25B5 on the serine 361”; in data set [4] it was “CDC25B4 on the serine 374”; in data set [5], “the recombinant Aurora A kinase phosphorylates CDC25B1 on the serine 339”. Besides, the “in vitro phosphorylation, MS/MS of the tryptic peptide 353-SVTPPEEQQEAEEPK-367” value in data set [3] is given as “it is the serine 353 which is phosphorylated by the kinase”.
